The supplement of paper PMC7877785
± gives the uncertainty stated by the source.

Assay: self-splicing fitness, log relative to wild type (ln ratio); higher = more splicing; Tetrahymena group I intron in knt gene, E. coli kanamycin selection, DiMSum; sequences stand for … in CUCUCU…GGAGGGAAAAGUUAUCAGGCAUGCACCUGGUAGCUAGUCUUUAAACCAAUAGAUUGCAUCGGUUUAAAAGGCAAGACCGUCAAAUUGCGGGAAAGGGGUCAACAGCCGUUCAGUACCAAGUCUCAGGGGAAACUUUGAGAUGGCCUUGCAAAGGGUAUGGUAAUAAGCUGACGGACAUGGUCCUAACCACGCAGCCAAGUCCUAAGUCAACAGAUCUUCUGUUGAUAUGGAUGCAGUUCACAGACUAAAUGUCGGUCGGGGAAGAUGUAUUCUUCUCAUAAGAUAUAGUCGGACCUCUCCUUAAUGGGAGCUAGCGGAUGAAGUGAUGCAACACUGGAGCCGCUGGGAACUAAUUUGUAUGCGAAAGUAUAUUGAUUAGUUUUGGAGUACUCGUGGUCG
In short: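 Pooled colonies went to amplicon sequencing on an Illumina HiSeq 2500 after six replicate transformations. The plates were LB agar with 100 μg/mL carbenicillin, 50 μM IPTG and 0.2% rhamnose, with or without 25 μg/mL kanamycin, incubated overnight at 37°C or 30°C. The E. coli BL21(DE3) library had all eight P1ex-region intron nucleotides randomised, the intron placed in the knt kanamycin-resistance gene on pET-22b(+). DiMSum fitness is the error-weighted combination of replicate fold changes, kanamycin against none, normalised to wild type.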

| Sequence | self-splicing fitness (ln) (30 °C) | self-splicing fitness (ln) (37 °C) |
| --- | --- | --- |
| AAGUAGCAAUAUUACGCUGA | -1.36 ± 0.15 | -0.457 ± 0.14 |
| AAGUAGCAAUAUUACGCUUG | -1.6 ± 0.097 | -0.42 ± 0.1 |
| AAGUAGCAAUAUUACGGGUC | -3.44 ± 0.16 | -2.84 ± 0.19 |
| AAGUAGCAAUAUUACGUACU | -0.863 ± 0.19 | -0.429 ± 0.19 |
| AAGUAGCAAUAUUACGUCCU | -0.128 ± 0.11 | 0.294 ± 0.14 |
| AAGUAGCAAUAUUACGUGCU | -1.29 ± 0.08 | -0.982 ± 0.1 |
| AAGUAGCAAUAUUACGUGGU | -3.68 ± 0.18 | -1.93 ± 0.15 |
| AAGUAGCAAUAUUACGUUAU | -1.93 ± 0.13 | -0.642 ± 0.11 |
| AAGUAGCAAUAUUACGUUCA | -0.86 ± 0.081 | 0.409 ± 0.096 |
| AAUAAGCAAUAUUACGACCA | -0.614 ± 0.18 | 0.141 ± 0.29 |
| AAUAAGCAAUAUUACGAGAA | -3.24 ± 0.38 | -1.55 ± 0.27 |
| AAUAAGCAAUAUUACGAGUG | -1.05 ± 0.07 | -0.56 ± 0.09 |
| AAUAAGCAAUAUUACGAUAA | -1.9 ± 0.19 | -1.03 ± 0.18 |
| AAUAAGCAAUAUUACGAUUA | -0.789 ± 0.12 | 0.438 ± 0.14 |
| AAUAAGCAAUAUUACGCGAG | -1.14 ± 0.097 | -0.557 ± 0.1 |
| AAUAAGCAAUAUUACGCUUU | -3.49 ± 0.21 | -3.26 ± 0.23 |
| AAUAAGCAAUAUUACGGAGG | -3.19 ± 0.18 | -1.93 ± 0.2 |
| AAUAAGCAAUAUUACGGAUA | -2.35 ± 0.14 | -1.68 ± 0.15 |
| AAUAAGCAAUAUUACGGCUU | -0.403 ± 0.12 | -0.12 ± 0.14 |
| AAUAAGCAAUAUUACGGUCG | -1.03 ± 0.098 | -0.232 ± 0.12 |
| AAUAAGCAAUAUUACGUGGU | -3.77 ± 0.17 | -2.63 ± 0.14 |
| AAUAAGCAAUAUUACGUUCA | -0.963 ± 0.084 | -0.348 ± 0.12 |
| AAUCAGCAAUAUUACGAAAC | -1.97 ± 0.19 | -0.858 ± 0.16 |
| AAUCAGCAAUAUUACGACAC | -0.56 ± 0.12 | -1.46 ± 0.15 |

| Sequence | self-splicing fitness (ln) (30 °C) | self-splicing fitness (ln) (37 °C) |
| --- | --- | --- |
| AAUCAGCAAUAUUACGACCC | 0.168 ± 0.15 | -0.615 ± 0.16 |
| AAUCAGCAAUAUUACGACUA | 0.113 ± 0.14 | -0.783 ± 0.12 |
| AAUCAGCAAUAUUACGAGAG | -1.82 ± 0.15 | -1.13 ± 0.13 |
| AAUCAGCAAUAUUACGAGUC | -2.05 ± 0.11 | -1.21 ± 0.11 |
| AAUCAGCAAUAUUACGAUCU | 0.0008 ± 0.059 | 0.914 ± 0.088 |
| AAUCAGCAAUAUUACGAUGC | -0.408 ± 0.076 | 0.219 ± 0.096 |
| AAUCAGCAAUAUUACGCAAG | -0.971 ± 0.068 | -0.72 ± 0.087 |
| AAUCAGCAAUAUUACGCCCG | -0.416 ± 0.14 | -0.489 ± 0.16 |
| AAUCAGCAAUAUUACGCCUC | -1.12 ± 0.13 | -0.226 ± 0.17 |
| AAUCAGCAAUAUUACGCGCU | -1.16 ± 0.075 | -0.732 ± 0.084 |
| AAUCAGCAAUAUUACGCUCG | -0.0659 ± 0.091 | -0.114 ± 0.12 |
| AAUCAGCAAUAUUACGGAUA | -0.0268 ± 0.069 | 0.49 ± 0.086 |
| AAUCAGCAAUAUUACGGAUG | -0.144 ± 0.066 | 0.153 ± 0.085 |
| AAUCAGCAAUAUUACGGCAA | -0.417 ± 0.074 | 0.747 ± 0.091 |
| AAUCAGCAAUAUUACGGCUC | -0.84 ± 0.082 | 0.535 ± 0.097 |
| AAUCAGCAAUAUUACGGGAG | -1.48 ± 0.054 | -0.88 ± 0.068 |
| AAUCAGCAAUAUUACGGGAU | -1.45 ± 0.08 | -1.34 ± 0.087 |
| AAUCAGCAAUAUUACGGUCC | -0.242 ± 0.085 | -0.118 ± 0.1 |
| AAUCAGCAAUAUUACGUAGA | -0.378 ± 0.071 | -0.124 ± 0.089 |
| AAUCAGCAAUAUUACGUAUG | -0.407 ± 0.079 | 0.138 ± 0.11 |
| AAUCAGCAAUAUUACGUCUC | -0.509 ± 0.091 | -0.314 ± 0.093 |
| AAUCAGCAAUAUUACGUUGA | -0.828 ± 0.086 | -0.22 ± 0.1 |
| AAUGAGCAAUAUUACGAACG | -2.46 ± 0.31 | -1.74 ± 0.3 |
| AAUGAGCAAUAUUACGAAUC | – | -1.74 ± 0.3 |

| Sequence | self-splicing fitness (ln) (30 °C) | self-splicing fitness (ln) (37 °C) |
| --- | --- | --- |
| AAUGAGCAAUAUUACGACUG | -3.77 ± 0.28 | -0.811 ± 0.19 |
| AAUGAGCAAUAUUACGAGUU | -3.21 ± 0.28 | -1.8 ± 0.31 |
| AAUGAGCAAUAUUACGAUCU | -0.572 ± 0.074 | -0.195 ± 0.1 |
| AAUGAGCAAUAUUACGCAAG | -3.81 ± 0.27 | -2.45 ± 0.38 |
| AAUGAGCAAUAUUACGCGAA | -3.05 ± 0.18 | -2.7 ± 0.22 |
| AAUGAGCAAUAUUACGCGUG | -2.11 ± 0.11 | -0.949 ± 0.1 |
| AAUGAGCAAUAUUACGGACA | -2.93 ± 0.45 | – |
| AAUGAGCAAUAUUACGGCAC | -2.9 ± 0.28 | -1.27 ± 0.32 |
| AAUGAGCAAUAUUACGGCUC | -1.82 ± 0.23 | -2.03 ± 0.38 |
| AAUGAGCAAUAUUACGGCUU | -1.85 ± 0.19 | -1.19 ± 0.18 |
| AAUGAGCAAUAUUACGGGAA | -2.61 ± 0.26 | -3.04 ± 0.33 |
| AAUGAGCAAUAUUACGGGAC | -2.96 ± 0.26 | -1.36 ± 0.25 |
| AAUGAGCAAUAUUACGGGGG | -4.09 ± 0.42 | -1.32 ± 0.25 |
| AAUGAGCAAUAUUACGGUUU | -2.13 ± 0.097 | -0.543 ± 0.11 |
| AAUGAGCAAUAUUACGUAGU | -3.83 ± 0.22 | -2.22 ± 0.21 |
| AAUGAGCAAUAUUACGUCUG | -2.92 ± 0.15 | -3 ± 0.21 |
| AAUGAGCAAUAUUACGUGAG | -3.5 ± 0.23 | -1.78 ± 0.14 |
| AAUGAGCAAUAUUACGUGCA | -2.95 ± 0.22 | -0.932 ± 0.14 |
| AAUGAGCAAUAUUACGUGCU | -3.93 ± 0.36 | -2.44 ± 0.25 |
| AAUUAGCAAUAUUACGACGC | -1.08 ± 0.14 | -0.792 ± 0.13 |
| AAUUAGCAAUAUUACGAGAA | -2.65 ± 0.48 | -1.05 ± 0.28 |
| AAUUAGCAAUAUUACGAGAU | -2.7 ± 0.17 | -2.16 ± 0.17 |
| AAUUAGCAAUAUUACGAGCG | -1.1 ± 0.096 | -0.749 ± 0.099 |
| AAUUAGCAAUAUUACGAGCU | -1.02 ± 0.12 | -0.169 ± 0.15 |

| Sequence | self-splicing fitness (ln) (30 °C) | self-splicing fitness (ln) (37 °C) |
| --- | --- | --- |
| AAUUAGCAAUAUUACGAUCC | -0.705 ± 0.18 | -0.148 ± 0.26 |
| AAUUAGCAAUAUUACGAUCU | 0.226 ± 0.09 | 0.704 ± 0.11 |
| AAUUAGCAAUAUUACGCCUA | 0.234 ± 0.13 | 0.297 ± 0.15 |
| AAUUAGCAAUAUUACGCGGC | -2.28 ± 0.39 | -1.32 ± 0.3 |
| AAUUAGCAAUAUUACGCUAA | -2.5 ± 0.28 | -2.27 ± 0.24 |
| AAUUAGCAAUAUUACGCUGG | -1.35 ± 0.17 | -1.01 ± 0.2 |
| AAUUAGCAAUAUUACGCUUG | -0.701 ± 0.07 | 0.227 ± 0.095 |
| AAUUAGCAAUAUUACGGACG | -1.29 ± 0.16 | 0.266 ± 0.12 |
| AAUUAGCAAUAUUACGGAGU | -2.69 ± 0.2 | -1.02 ± 0.17 |
| AAUUAGCAAUAUUACGGAUG | -2.06 ± 0.12 | -0.146 ± 0.15 |
| AAUUAGCAAUAUUACGGUAC | -2.42 ± 0.16 | -1.22 ± 0.2 |
| AAUUAGCAAUAUUACGGUCA | 0.31 ± 0.12 | -0.629 ± 0.098 |
| AAUUAGCAAUAUUACGGUGG | -2.7 ± 0.18 | -1.96 ± 0.22 |
| AAUUAGCAAUAUUACGUGAA | -2.4 ± 0.15 | -1.22 ± 0.17 |
| AAUUAGCAAUAUUACGUGCC | -1.48 ± 0.082 | -0.857 ± 0.11 |
| AAUUAGCAAUAUUACGUGCU | -2.18 ± 0.12 | -1.33 ± 0.11 |
| AAUUAGCAAUAUUACGUUUG | -3.16 ± 0.22 | -2.9 ± 0.27 |
| ACAAAGCAAUAUUACGAAUC | -2.69 ± 0.19 | -1.66 ± 0.17 |
| ACAAAGCAAUAUUACGACCC | -0.934 ± 0.16 | 0.532 ± 0.21 |
| ACAAAGCAAUAUUACGAGCG | -0.894 ± 0.084 | 0.57 ± 0.096 |
| ACAAAGCAAUAUUACGAGUA | -3.03 ± 0.16 | -1.7 ± 0.11 |
| ACAAAGCAAUAUUACGAUAC | -2.89 ± 0.2 | -2.29 ± 0.16 |
| ACAAAGCAAUAUUACGAUCA | -0.675 ± 0.066 | -0.735 ± 0.093 |
